Reference: the nanobody polyreactivity screen of Harvey et al. (2022)

Assay: yeast display, Sf9 membrane polyspecificity reagent, FACS + sequencing; frameworks hold sequencing errors
Summary of the method: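 Sorting gates, low and high (top ~1%), were placed on anti-HA fluorescence to track expression and on streptavidin fluorescence to track reagent binding. A clone's polyreactivity label is taken from the gate it came out of. The reagent was 10% biotinylated, detergent-solubilized Sf9 membrane, applied for 1 hour at 4 °C to galactose-induced yeast display cells.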

Sequence	polyreactivity (PSR sort gate)
QVQLVESGGGLVQAGGSLRLSCAASGITFAKYAMGWYRQAPGKESELVAAISSSGGRTYYADSVKGRFTISRDNAKNTVYLQMNSLKPEDTAVYYCAADFSGPFDYWGLGTQVTVSS	high polyreactivity
QVQIVESGGGLVQAGGSLRLSCAASGFIFYFYAMGWYRQAPGKERELVATITRRDDSTYYADSVKGRFTISRDNAKNTVYLQMNSLKPEDTAVYYCNADFWLLSEYDYWGQGTQVTVSS	low polyreactivity
QGQLVESGGGLGQAGGTLRLSCAASGFTFSFYAMGWYRQAPGKERELVAAISWSGGSTYYADSVKGRFTISRDNAKNTVYLQMNSLKPEDTAVYYCAAKLLYVGRYGYWGHGTQVTVSS	high polyreactivity
QVQLVESGGVLVQAGGSLRLSCAASGFTFSLYAMGWYRQAPGKERELVASISRSGGSTYYADSVKGRFTISRDNAKNTVYLQMNSLKPEDTAVYSCAARWRPYKYDSWGQGTQVTVSS	high polyreactivity
QVQLVESGGGLVQAGGSLRLSCAASGNIFIKNAMGWYRQAPGKERELVAAISFSGGSTYYADSVKGRFTISRDNAKNTVYLQMNSLKPEDTAVYYCNAVRRQARQYDYWGQGTQVTVSS	high polyreactivity
QVQLVESGGGLVQAGGSLRLSCAASGSTFTGYAMGWYRQAPGKERELVAAIDVSGATTYYADSVKGRFTISRDNAKNTVYLQMNSLKPEDTAVYYCATYATNSVAAYDYWGQGTQVTVSS	low polyreactivity
QVQLVESGGGLVQAGGSLRLSCAASGSIFGRNAMGWYRQAPGKERELVAAINYSGTSTYYADSVKGRFTISRDNAKNTVYLQMNSLKPEDTAVYYCAKARHKSPTYTHDSWGQGTQVTVSS	high polyreactivity
QVQLVESGGGLVQAGGSLRLSCAASGFIFRYNAMGWYRQAPGKERELVAAIDSGGSTYYADSVKGRFTISRDNAKNTVYLQMNSLKPEDTAVYYCNAVHEASYAGVDYWGQGTQVTVSS	low polyreactivity
QVQLVESGGGLVQAGGSLRLSCAASGLIFYDNMGWYIQAPGKEREMVAAISSSGGSTSYADSVKGRFTISRDNAKNTVYLQMNSLKPEDTAVYYCAADSYPAYLGFVGFDYWGQGTQVTVSS	low polyreactivity
QVQLVESGGGLVQAGGSLRLSCAASGRIFQYNAMGWYRQSPGKERELVAAIRRGGGSTYYADSVKGRFTISRDNAKNTVYLQMNSLKPEDTAVYYCAARRKRVSFYPEYDYWGQGTQVTVSS	low polyreactivity
QVQLVESGGGLVQAGGSLRLSCAASGRIFYANTMGWYRKATGKERELVAAISSGGSTTYADSVKGRFTISRENAKNTVYLQMNSLKPEDPAVYYCATNTWYHYQRMYYWGQGTQVTVSS	high polyreactivity
QVQLQESGGGLVQAGGSLRLRCAASRNISGSSDLGWYHQAPGKEREFVASITSGGTTYYADSVKGRFTISRDNAKNTVYLQMNSLKPEDTAVYYCAAESRYPFIYEYWGQGTQVTVSS	low polyreactivity
QVQLVESGGGLVQAGGSLRLSCAASGRTFGGYAMGWYRQAPGKERELVAAISSGGGTYADSVKGRFTISRDNAKNTVYLQMNSLKPEDTAVYYCAAGSRWYWAYKPTVHYYYWGQGTQVTVSS	high polyreactivity
QVQLVESGAGVGQAGGSLRLSCAASGSIFTPYAMGWYRPAPGKERELVAGITSGGNTNYADSVKGRFTISRDNAKNTVYLQMNSLKPEDTAVYYCAARYIYYYAYGYNYWGQGTKVTVSS	high polyreactivity
QVQLVESGGGLVQAGGSLRLSCAASGITFAHYAMGWYRQAPGKERELVAVITSGGSTYYADSVKGRFTISRDNAKNTVYLQMNSLKPEDTAVYYCNRVPRRSIRYDYWGQGTQVTVSS	high polyreactivity
QVQLVESGGGLVQAGGSLRLSCAASGRTFLIYAMGWYRQAPGKERELVAGITRGSTTYADSVKGRFTISRDNAKNTVYLQMNSLKPEDTEVYYCAARNYSVATYGEYDYWGQGTQVTVSS	high polyreactivity
QVQLVESGGGLVQAGGSLRLSCAASGSIFKYNDMGWYRQAPGKERELVAAISWRGGRTYYADSVKGRFTISRDNAKNTVYLQMNSLKPEDTAVYYCNVVLDNRRGTYSYYYWGQGTQVTVSS	high polyreactivity
QVQLQEGGGLVQAGGSLRLSCAASGYISSPPAMGWYRQAPGKERAFVATIADGTSTYYADSVKGRFTISRDNAKNTVYLQMNSLKTEDTEVYYCAAAYNTEFYLSYWGQGTQVTVIS	high polyreactivity
QVQLVESGGGLVQAGGSLRLSCAPSGFTFGYYAMGWYRQAPGKEMELVAAISSSGGSTYYADSVKGRFTISRDNAKKTVYLQMNSLKREVTAVYYCAVVVFSRVYRYFTSDYWGQGTQVTVSS	high polyreactivity
QVQLVESGGRLVQAGGSLRISCAASGRTFRYYAKGWYRQAPGKERELVAAISSRGTRTYYADSVKGRFTISRDNAKNTGYLQMNSLKPEDTAVYYCATRYYQELAYDFWGQGTQVIVSS	high polyreactivity
QVQLVESGGGLVQAGGSLRLSCAASGRIFFSYAMGWYRQAPGKERELVAAISRSGGRTYYADSVKGRFTISRDNAKNTVYLQMNSLKPEDTAVYYCAASSISSLYYDYWGQGTQVTVSS	high polyreactivity
QVQLVESGAGLVQAGGSLRLSWAASGRIFTGNGMGWYRQAPGKEMELVAGIRNGGGRTYYADSVKGRFTISRDNAKNTVYLKMNSLKPEDTAVYYCAVRIYVRNSPGERLDKYDYWGQGTQVTVSS	high polyreactivity

Sequence	polyreactivity (PSR sort gate)
QVQLVESGGGLVQAGGSLRLSCAASGSIIFGYGMGWYRQAPGKERELVATITTSGGTYYADSVKGRFTISRDNAKNSVYLQMNSLKPEDTAVYYCAATAAALDGNTIMYYWGQGTQVTVSS	low polyreactivity
QVQLEESGGGLVQAGGSLRLSCAASGSIFSGYTMGWYRQAPGKERELVAGISYRGGSTYYADSVKGRFTISRDNAKNTVYLQMNSLKPEDTAVYYCAARVWWRYEYWGQGTQVTVSS	high polyreactivity
QDQLVESGGGLVQAGGSLRLSCAASGITFYGYAMGWYRQAPGKERELVAAISESGGSTYYADSVKGRFTISRDNAKNTVYLQMNSLKPEDTAVYYCAAQGYSVYCYSNYWGQGTQVTVSS	low polyreactivity
QVQLVESGGGLVQAGGSLRLSCAASGFTFDRYAMGWYRQAPGKERELVAAISRSGGSTHYADSVKGRFTISRDNAKNTVYLQMNSLKPEDTAVYYCNKRWFYDGYDYWGQGTQVTVSS	high polyreactivity
QVQLVESGGGLVQAGGSLRLSCAASGSIFVVYAMGWYRQAPGKERELVASIRTGGSTNYADSVKGRFTISRDNAKNTVYLQMNSLKPEDTAVYYCAAASWNCNRHYYVARYYYWGQGTQVNVSS	high polyreactivity
QVQLVESGGGLVQAGGSLRLSCAASGFTFYHYAMGWYRQAPGKERELVAAISRSAGSTYYADSVKGRFTISRDNAKNTVYLQMNSLKPEDTAVYYCAKVLRAKNSFDYWGQGTHVTVSS	high polyreactivity
QVQLVESGGGLVQAGGSLRLSCAAYGRTLRPYAMGWYRQAPGKERELVASIRRDGSTYADSVKGRYTISLDNAKNTVYLQMNSLKPEDTAVYYCAAARGYPLSYWGQGTQVTVSS	low polyreactivity
QVQLVESGGGLVQAGGSLRLSCAASGSTFKYYGMGWYRQAPGKERELVAAITSGGSTYDADSVKGRFTISRDNAKTTVYLQRNSLKPEDTAVYYCNTQYYLYYPADYDYWGQGTQVTVSS	low polyreactivity
QVQLQDSGGRLVQAGGSLRLSCAASGYIFGSCSMGWFRQSPGKVRELVATINNGSSTYYADSVKGRITISRDNAKNSVYLQMNSLKPEDTAVYYCAVSLYRLTFFYYWGQGNQVTVSS	high polyreactivity
QVQLVESGGGLVQAGGSLRLSCAASGRTFYVYAMGWYRQAPGKERELVATISRGGSTTYADSVKGRFTISRDNAKNTVYLQMNSLKPEDTAVYYCATELLGGRRTVAYYWGQGTQVTVSS	low polyreactivity
QVQLVESGGGLVQAVGSLRLSCAASGSTFPYYTMGWYRQAPGKERELVAAITASGGSTYYADSVKGRVTISRDNAKNTVYLQMNSLKPEDTAVYYCAATCLNHVRKSRGYDYWGQGTQVTVSS	high polyreactivity
QVQLVESGGGLVQAGGSLRLSCAASGSTFGNYDIGWYRQAPGKERELVAAISFSGGSTYYADSVKGRFTISRDNAKNTVYLQMNSLIPEDTAVYYCAARSNYRMDYWGQGTQVTVSS	high polyreactivity
QVQLVESGGGLVQAGGSLRLSCAASGFTFPYYAMGWYRQAPGKERELVAAISYSGSTTYYADSVKGRFTISRDNAKNTVYLQMNSLKPEDTAVYYCAKAGYYYFQQWQVDYWGQGTQVTVSS	high polyreactivity
QVQLVESGGGLVQAGGSLSLSCAASGSIIPDYAMGWYRQAPGKERELVAAITWRDDSTYYADSVKGRFTISRDNAKNTVYLQMNSLKPEDTAVYYCNASALDPLYAKDDYWGQGTQVTVSS	low polyreactivity
QVQLVESGGGLVQAGGSLRISCAASGITFYRYAMGWYRQAPGKEREFVAAINYGGSSTRYADSVKGRFTISRDNAKITVYLQMNSLKPEDTAVYYCAKVELARVEYDYWGQGTQVTVSS	low polyreactivity
QVQLVESGGGLVQAGGSLRLSCAASGRIFRKYAMGWYRQAPGKERELVAAISVGGGSTRYADSEKGRFTISRDYAKYTVYLQMNSLKPEYTAVYYCAADWAYYVASYLYYTFDYWGQGTQVTVSS	low polyreactivity
QVLLVESGGGLVQAGGSIRLSCAASGFIFWSNSLGWYRPAPGQEMELVAAISWSGGSTYYADSVKGRFTISRDNAKNNVYLEMNSVKPEDTAVYYCAARQTYGYRYTKYGYWGQGTQVTVSS	high polyreactivity
QVQLVESGGGLVQAGGSLLLSCAASGITFSYYAMGWYRQAPGKERELVAAISRTGTSTYYADSVKGRFTISRDNAKNTVYLQMKSLKPEDTAVYYCAAVPRHPYHDKYDYWGQGTQVTVSS	high polyreactivity
QVQLVESGGGLVQAGGSLRLSCAASGSTFSANAMGWYRQAPGKERELVADISTGGSTKYADSVKGRFTISRDNAKNTVYLQMNSLKPEDTAVYYCAARRRWARGSAIRGYWGQGTQVTVSS	high polyreactivity
QVQLVESGGGLVQAGGSLRLSCAASGFIFWYYAMGWYRQAPGKERELVAAITTSDGSTYYADSVKGRFTISRDNAKNTVYLQMNSLKPEDTAGYYCAADSYYVSYGYYYCGQGTQVTVSS	low polyreactivity
QVQLVESGGGLVQAGGSLRLSCAASGSIFGYYAMGWYRQAPGKERELVAAITSDGSTYYADSVKGRFTITRDNAKNTVNLQMNSLKPEDTAVYYCAAYSWYYTSRYDYWGQGTQVTVSS	low polyreactivity
